Experimental data published in patent US20070135335.

Test system: Beacon (recombinant, expressed as GST-Beacon in E. coli, GST tag cleaved off with thrombin)

Sequence of GST-CLK4 (recombinant human CLK4 fused to glutathione S-transferase, pGEX4T-1) (chain, as listed by the source): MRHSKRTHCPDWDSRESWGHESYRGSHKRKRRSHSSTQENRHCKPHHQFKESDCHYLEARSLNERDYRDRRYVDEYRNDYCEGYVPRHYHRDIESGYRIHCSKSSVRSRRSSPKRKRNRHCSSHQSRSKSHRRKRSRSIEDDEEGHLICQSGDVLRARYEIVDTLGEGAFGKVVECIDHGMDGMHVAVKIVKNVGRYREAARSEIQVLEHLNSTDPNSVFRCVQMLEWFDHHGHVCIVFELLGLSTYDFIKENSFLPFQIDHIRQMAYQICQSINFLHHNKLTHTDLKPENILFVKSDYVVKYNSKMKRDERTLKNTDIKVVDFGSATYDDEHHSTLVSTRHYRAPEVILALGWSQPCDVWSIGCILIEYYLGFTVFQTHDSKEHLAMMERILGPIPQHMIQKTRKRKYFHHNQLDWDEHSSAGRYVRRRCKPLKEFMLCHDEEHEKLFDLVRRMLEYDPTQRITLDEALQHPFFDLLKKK
Sequence of GST-CLK2 (recombinant human CLK2 fused to glutathione S-transferase, pGEX4T-1) (chain, as listed by the source): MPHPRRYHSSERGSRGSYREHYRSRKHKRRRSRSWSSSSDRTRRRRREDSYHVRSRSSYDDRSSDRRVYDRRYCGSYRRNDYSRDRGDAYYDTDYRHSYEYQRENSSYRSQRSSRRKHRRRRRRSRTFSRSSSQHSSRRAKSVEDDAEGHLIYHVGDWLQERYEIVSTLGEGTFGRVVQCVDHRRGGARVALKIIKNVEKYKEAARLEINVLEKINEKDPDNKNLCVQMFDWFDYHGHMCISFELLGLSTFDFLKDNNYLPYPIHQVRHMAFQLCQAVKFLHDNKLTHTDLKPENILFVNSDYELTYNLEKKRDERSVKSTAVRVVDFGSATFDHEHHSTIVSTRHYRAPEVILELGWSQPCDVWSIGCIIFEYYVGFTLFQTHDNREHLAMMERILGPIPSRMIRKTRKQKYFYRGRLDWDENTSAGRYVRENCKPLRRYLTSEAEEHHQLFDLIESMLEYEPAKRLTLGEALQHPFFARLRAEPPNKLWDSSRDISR
Sequence of GST-CLK1 (recombinant human CLK1 fused to glutathione S-transferase, pGEX4T-1) (chain, as listed by the source): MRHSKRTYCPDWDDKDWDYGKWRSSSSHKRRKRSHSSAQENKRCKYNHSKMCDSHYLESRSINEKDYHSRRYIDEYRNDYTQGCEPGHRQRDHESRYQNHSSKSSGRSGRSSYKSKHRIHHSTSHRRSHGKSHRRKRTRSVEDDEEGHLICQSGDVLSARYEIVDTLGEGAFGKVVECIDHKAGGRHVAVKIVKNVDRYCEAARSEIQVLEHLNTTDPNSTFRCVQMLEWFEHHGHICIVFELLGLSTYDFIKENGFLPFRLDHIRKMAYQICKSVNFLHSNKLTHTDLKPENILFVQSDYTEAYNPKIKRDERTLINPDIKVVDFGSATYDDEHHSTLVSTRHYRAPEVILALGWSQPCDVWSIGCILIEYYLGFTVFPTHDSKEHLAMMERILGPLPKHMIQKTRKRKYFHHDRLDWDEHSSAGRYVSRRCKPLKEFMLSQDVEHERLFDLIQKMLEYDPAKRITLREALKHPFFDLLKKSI

| Substance | phosphorylation of Beacon in kinase assay with [gamma-32P]-ATP |
| --- | --- |
| GST-CLK2 (recombinant human CLK2 fused to glutathione S-transferase, pGEX4T-1) | Beacon was not phosphorylated by any of the CLKs |
| GST-CLK4 (recombinant human CLK4 fused to glutathione S-transferase, pGEX4T-1) | Beacon was not phosphorylated by any of the CLKs |
| GST-CLK1 (recombinant human CLK1 fused to glutathione S-transferase, pGEX4T-1) | Beacon was not phosphorylated by any of the CLKs |
